Values quoted from earlier work as cited in publication PMC9842050.
Like-named read-outs stand apart in the source and are kept apart here.

Columns and labels:
CXCR4 (Homo sapiens) [1] = biological target: CXCR4 (Homo sapiens) (UniProt P61073)
CXCR4 (Homo sapiens) [2] = biological target: CXCR4 (Homo sapiens) (UniProt P61073); remark: listed apart in the source
GLP-1R (Homo sapiens) [3] = biological target: GLP-1R (Homo sapiens) (UniProt P43220); experiment: radioligand competition binding
GLP-1R (Homo sapiens) [4] = biological target: GLP-1R (Homo sapiens) (UniProt P43220); experiment: radioligand competition binding; remark: listed apart in the source

Chain of SDF-1α (P48061 24-88): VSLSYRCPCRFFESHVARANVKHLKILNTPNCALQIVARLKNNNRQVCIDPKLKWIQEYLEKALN
Chain of CXCR4 (Homo sapiens) (P61073 whole entry): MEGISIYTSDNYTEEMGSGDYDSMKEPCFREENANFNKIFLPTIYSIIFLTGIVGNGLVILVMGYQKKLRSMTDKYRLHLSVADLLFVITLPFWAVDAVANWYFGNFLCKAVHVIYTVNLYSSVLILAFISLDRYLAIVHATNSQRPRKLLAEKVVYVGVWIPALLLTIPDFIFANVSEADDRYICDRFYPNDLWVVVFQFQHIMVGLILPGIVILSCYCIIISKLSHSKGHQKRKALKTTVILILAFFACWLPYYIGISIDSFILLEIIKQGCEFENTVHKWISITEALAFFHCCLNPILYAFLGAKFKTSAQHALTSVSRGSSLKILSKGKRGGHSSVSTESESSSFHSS
Chain of exendin-4 (P26349 48-86): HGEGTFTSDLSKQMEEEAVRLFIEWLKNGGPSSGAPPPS
Chain of GLP-1R (Homo sapiens) (P43220 24-463): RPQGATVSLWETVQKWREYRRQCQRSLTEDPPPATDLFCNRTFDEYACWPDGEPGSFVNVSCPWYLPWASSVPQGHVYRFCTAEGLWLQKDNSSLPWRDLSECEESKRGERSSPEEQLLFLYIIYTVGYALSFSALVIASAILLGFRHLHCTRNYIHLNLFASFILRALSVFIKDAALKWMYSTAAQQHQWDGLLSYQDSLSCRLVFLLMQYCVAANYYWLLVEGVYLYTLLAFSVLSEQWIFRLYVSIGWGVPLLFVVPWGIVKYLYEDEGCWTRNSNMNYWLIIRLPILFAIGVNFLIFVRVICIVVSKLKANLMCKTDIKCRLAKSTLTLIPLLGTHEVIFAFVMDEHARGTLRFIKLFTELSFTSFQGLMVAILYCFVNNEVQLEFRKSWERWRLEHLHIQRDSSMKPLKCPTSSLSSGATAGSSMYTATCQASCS

Kd (CXCR4 (Homo sapiens) [1]) [nM] | Kd (CXCR4 (Homo sapiens) [2]) [nM] | Substance | Kd (GLP-1R (Homo sapiens) [3]) [nM] | Kd (GLP-1R (Homo sapiens) [4]) [nM]
8.4 | 1.4 | SDF-1α (from UniProt P48061) |  | 
 |  | exendin-4 (from UniProt P26349) | 37.8 | 54.3
